Data on one substance can be found in patent US20150196663A1.

This assay concerns the target rat transferrin receptor (rat) (UniProt Q99376). Nature of the assay: cell-based or functional assay.
Sequence of UniProt Q99376 (Q99376 whole entry): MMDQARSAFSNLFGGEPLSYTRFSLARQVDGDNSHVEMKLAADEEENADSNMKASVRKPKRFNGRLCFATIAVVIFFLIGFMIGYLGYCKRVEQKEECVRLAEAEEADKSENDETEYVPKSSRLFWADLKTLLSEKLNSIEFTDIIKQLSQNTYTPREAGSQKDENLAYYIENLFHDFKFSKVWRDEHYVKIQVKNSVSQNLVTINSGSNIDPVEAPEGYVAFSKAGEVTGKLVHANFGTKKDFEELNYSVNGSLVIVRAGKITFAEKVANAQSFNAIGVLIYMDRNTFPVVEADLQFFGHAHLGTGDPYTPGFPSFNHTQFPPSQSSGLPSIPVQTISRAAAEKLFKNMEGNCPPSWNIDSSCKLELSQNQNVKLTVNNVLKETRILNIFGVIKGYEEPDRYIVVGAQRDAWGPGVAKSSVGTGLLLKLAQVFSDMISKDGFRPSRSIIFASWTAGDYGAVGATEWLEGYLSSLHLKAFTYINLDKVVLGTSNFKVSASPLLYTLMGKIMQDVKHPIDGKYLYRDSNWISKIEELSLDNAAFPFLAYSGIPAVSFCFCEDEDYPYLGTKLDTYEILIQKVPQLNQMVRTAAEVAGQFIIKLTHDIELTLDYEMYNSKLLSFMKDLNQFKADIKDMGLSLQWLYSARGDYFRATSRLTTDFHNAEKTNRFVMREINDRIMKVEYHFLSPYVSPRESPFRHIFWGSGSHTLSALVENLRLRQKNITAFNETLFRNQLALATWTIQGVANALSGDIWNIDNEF

In the case of “OX-26, positive control antibody against the rat transferrin receptor (AbD Serotec, # MCA155G)”, the percentage of RBE4 cells exhibiting multiple internalized vesicles per cell came out at 92% and the percentage of primary BMECs exhibiting multiple internalized vesicles per cell came to 46%.
